Data taken from patent US20170015742A1 (published 2017).

B1: CL-33675_GS_CL-34565 (PR-1613186) (bispecific antibody, human IgG1, kappa, L234A L235A)
heavy: EVTLRESGPALVKPTQTLTLTCTFSGFSLSTYGMGVGWIRQPPGKALEWLANIWWDDDKYYNPSLKNRLTISKDTSKNQVVLTMTNMDPVDTATYYCARIESSGPKYSFDYWGQGTMVTVSSGGGGSGGGGSEVQLVQSGSELKKPGASVKVSCKASGYTFTDYGMYWVRQAPGQGLEWMGWIDTETGDPTYADDFKGRFVFSLDTSVSTAYLQISSLKAEDTAVYYCARTNYYYRNYMFYFDYWGQGTMVTVSSASTKGPSVFPLAPSSKSTSGGTAALGCLVKDYFPEPVTVSWNSGALTSGVHTFPAVLQSSGLYSLSSVVTVPSSSLGTQTYICNVNHKPSNTKVDKKVEPKSCDKTHTCPPCPAPEAAGGPSVFLFPPKPKDTLMISRTPEVTCVVVDVSHEDPEVKFNWYVDGVEVHNAKTKPREEQYNSTYRVVSVLTVLHQDWLNGKEYKCKVSNKALPAPIEKTISKAKGQPREPQVYTLPPSREEMTKNQVSLTCLVKGFYPSDIAVEWESNGQPENNYKTTPPVLDSDGSFFLYSKLTVDKSRWQQGNVFSCSVMHEALHNAYTQKSLSLSPGK
light: EIVLTQSPGTLSLSPGERATLSCRASSGSIWYSFVSWYQQKPGQAPRLLIYADDQRASGIPDRFSGSGSGTDFTLTISRLEPEDFAVYYCQSYGINIDVVFGGGTKVEIKGGSGGGGSGGEIVLTQSPATLSLSPGERATLFCRASQSVSNHMHWYQQKPGQAPRLLIYGASILESGVPARFSGSGSGTDFTLTISSLEPEDFAVYYCQQSWYDPITFGQGTKLEIKRTVAAPSVFIFPPSDEQLKSGTASVVCLLNNFYPREAKVQWKVDNALQSGNSQESVTEQDSKDSTYSLSSTLTLSKADYEKHKVYACEVTHQGLSSPVTKSFNRGEC
B2: 9E8.4_GS_CL-34565 (PR-1613187) (bispecific antibody, human IgG1, kappa, L234A L235A)
heavy: EVTLRESGPALVKPTQTLTLTCTFSGFSLSTYGMGVGWIRQPPGKALEWLANIWWDDDKYYNPSLKNRLTISKDTSKNQVVLTMTNMDPVDTATYYCARIESIGTTYSFDYWGQGTMVTVSSGGGGSGGGGSEVQLVQSGSELKKPGASVKVSCKASGYTFTDYGMYWVRQAPGQGLEWMGWIDTETGDPTYADDFKGRFVFSLDTSVSTAYLQISSLKAEDTAVYYCARTNYYYRNYMFYFDYWGQGTMVTVSSASTKGPSVFPLAPSSKSTSGGTAALGCLVKDYFPEPVTVSWNSGALTSGVHTFPAVLQSSGLYSLSSVVTVPSSSLGTQTYICNVNHKPSNTKVDKKVEPKSCDKTHTCPPCPAPEAAGGPSVFLFPPKPKDTLMISRTPEVTCVVVDVSHEDPEVKFNWYVDGVEVHNAKTKPREEQYNSTYRVVSVLTVLHQDWLNGKEYKCKVSNKALPAPIEKTISKAKGQPREPQVYTLPPSREEMTKNQVSLTCLVKGFYPSDIAVEWESNGQPENNYKTTPPVLDSDGSFFLYSKLTVDKSRWQQGNVFSCSVMHEALHNAYTQKSLSLSPGK
light: EFVLTQSPGTLSLSPGERATLSCERSSGDIGDSYVSWYQQKPGQAPRLVIYADDQRPSGIPDRFSGSGSGTDFTLTISRLEPEDFAVYYCQSYDINIDIVFGGGTKVEIKGGSGGGGSGGEIVLTQSPATLSLSPGERATLFCRASQSVSNHMHWYQQKPGQAPRLLIYGASILESGVPARFSGSGSGTDFTLTISSLEPEDFAVYYCQQSWYDPITFGQGTKLEIKRTVAAPSVFIFPPSDEQLKSGTASVVCLLNNFYPREAKVQWKVDNALQSGNSQESVTEQDSKDSTYSLSSTLTLSKADYEKHKVYACEVTHQGLSSPVTKSFNRGEC
B3: CL-34565_GS_CL-33675 (PR-1613183) (bispecific antibody, human IgG1, kappa, L234A L235A)
heavy: EVQLVQSGSELKKPGASVKVSCKASGYTFTDYGMYWVRQAPGQGLEWMGWIDTETGDPTYADDFKGRFVFSLDTSVSTAYLQISSLKAEDTAVYYCARTNYYYRNYMFYFDYWGQGTMVTVSSGGGGSGGGGSEVTLRESGPALVKPTQTLTLTCTFSGFSLSTYGMGVGWIRQPPGKALEWLANIWWDDDKYYNPSLKNRLTISKDTSKNQVVLTMTNMDPVDTATYYCARIESSGPKYSFDYWGQGTMVTVSSASTKGPSVFPLAPSSKSTSGGTAALGCLVKDYFPEPVTVSWNSGALTSGVHTFPAVLQSSGLYSLSSVVTVPSSSLGTQTYICNVNHKPSNTKVDKKVEPKSCDKTHTCPPCPAPEAAGGPSVFLFPPKPKDTLMISRTPEVTCVVVDVSHEDPEVKFNWYVDGVEVHNAKTKPREEQYNSTYRVVSVLTVLHQDWLNGKEYKCKVSNKALPAPIEKTISKAKGQPREPQVYTLPPSREEMTKNQVSLTCLVKGFYPSDIAVEWESNGQPENNYKTTPPVLDSDGSFFLYSKLTVDKSRWQQGNVFSCSVMHEALHNAYTQKSLSLSPGK
light: EIVLTQSPATLSLSPGERATLFCRASQSVSNHMHWYQQKPGQAPRLLIYGASILESGVPARFSGSGSGTDFTLTISSLEPEDFAVYYCQQSWYDPITFGQGTKLEIKGGSGGGGSGGEIVLTQSPGTLSLSPGERATLSCRASSGSIWYSFVSWYQQKPGQAPRLLIYADDQRASGIPDRFSGSGSGTDFTLTISRLEPEDFAVYYCQSYGINIDVVFGGGTKVEIKRTVAAPSVFIFPPSDEQLKSGTASVVCLLNNFYPREAKVQWKVDNALQSGNSQESVTEQDSKDSTYSLSSTLTLSKADYEKHKVYACEVTHQGLSSPVTKSFNRGEC
B4: CL-34565_GS_9E8.4 (PR-1613184) (bispecific antibody, human IgG1, kappa, L234A L235A)
heavy: EVQLVQSGSELKKPGASVKVSCKASGYTFTDYGMYWVRQAPGQGLEWMGWIDTETGDPTYADDFKGRFVFSLDTSVSTAYLQISSLKAEDTAVYYCARTNYYYRNYMFYFDYWGQGTMVTVSSGGGGSGGGGSEVTLRESGPALVKPTQTLTLTCTFSGFSLSTYGMGVGWIRQPPGKALEWLANIWWDDDKYYNPSLKNRLTISKDTSKNQVVLTMTNMDPVDTATYYCARIESIGTTYSFDYWGQGTMVTVSSASTKGPSVFPLAPSSKSTSGGTAALGCLVKDYFPEPVTVSWNSGALTSGVHTFPAVLQSSGLYSLSSVVTVPSSSLGTQTYICNVNHKPSNTKVDKKVEPKSCDKTHTCPPCPAPEAAGGPSVFLFPPKPKDTLMISRTPEVTCVVVDVSHEDPEVKFNWYVDGVEVHNAKTKPREEQYNSTYRVVSVLTVLHQDWLNGKEYKCKVSNKALPAPIEKTISKAKGQPREPQVYTLPPSREEMTKNQVSLTCLVKGFYPSDIAVEWESNGQPENNYKTTPPVLDSDGSFFLYSKLTVDKSRWQQGNVFSCSVMHEALHNAYTQKSLSLSPGK
light: EIVLTQSPATLSLSPGERATLFCRASQSVSNHMHWYQQKPGQAPRLLIYGASILESGVPARFSGSGSGTDFTLTISSLEPEDFAVYYCQQSWYDPITFGQGTKLEIKGGSGGGGSGGEFVLTQSPGTLSLSPGERATLSCERSSGDIGDSYVSWYQQKPGQAPRLVIYADDQRPSGIPDRFSGSGSGTDFTLTISRLEPEDFAVYYCQSYDINIDIVFGGGTKVEIKRTVAAPSVFIFPPSDEQLKSGTASVVCLLNNFYPREAKVQWKVDNALQSGNSQESVTEQDSKDSTYSLSSTLTLSKADYEKHKVYACEVTHQGLSSPVTKSFNRGEC
B5: 3E2.1_GS_1B10.1 (PR-1612502) (bispecific antibody, human IgG1, kappa, L234A L235A)
heavy: EVQLVQSGAEVKKPGSSVKVSCKASGYTFTESYMYWVKQAPGQGLELIGRIDPEDGSTDYVEKFKNKATLTADKSTSTAYMELSSLRSEDTAVYFCARFGARSYFYPMDAWGQGTTVTVSSGGGGSGGGGSEVQLVESGGGLVQPGGSLRLSCAASGFSFSKYDMAWFRQAPGKGLEWVASITTSGVGTYYRDSVKGRFTVSRDNAKSTLYLQMNSLRAEDTAVYYCARGYGAMDAWGQGTTVTVSSASTKGPSVFPLAPSSKSTSGGTAALGCLVKDYFPEPVTVSWNSGALTSGVHTFPAVLQSSGLYSLSSVVTVPSSSLGTQTYICNVNHKPSNTKVDKKVEPKSCDKTHTCPPCPAPEAAGGPSVFLFPPKPKDTLMISRTPEVTCVVVDVSHEDPEVKFNWYVDGVEVHNAKTKPREEQYNSTYRVVSVLTVLHQDWLNGKEYKCKVSNKALPAPIEKTISKAKGQPREPQVYTLPPSREEMTKNQVSLTCLVKGFYPSDIAVEWESNGQPENNYKTTPPVLDSDGSFFLYSKLTVDKSRWQQGNVFSCSVMHEALHNAYTQKSLSLSPGK
light: ETVLTQSPATLSLSPGERATLSCRASESVSTLMHWYQQKPGQQPRLLIYGASNLESGVPARFSGSGSGTDFTLTISSLEPEDFAVYFCQQSWNDPWTFGGGTKVEIKGGSGGGGSGGDIQMTQSPSSLSASVGDRVTITCKASQDIDDYLSWYQQKPGKSPKLVIYAATRLADGVPSRFSGSGSGTDYTLTISSLQPEDFATYYCLQSSSTPWTFGGGTKVEIKRTVAAPSVFIFPPSDEQLKSGTASVVCLLNNFYPREAKVQWKVDNALQSGNSQESVTEQDSKDSTYSLSSTLTLSKADYEKHKVYACEVTHQGLSSPVTKSFNRGEC
B6: CL-34565_GS_3E2.1 (PR-1613185) (bispecific antibody, human IgG1, kappa, L234A L235A)
heavy: EVQLVQSGSELKKPGASVKVSCKASGYTFTDYGMYWVRQAPGQGLEWMGWIDTETGDPTYADDFKGRFVFSLDTSVSTAYLQISSLKAEDTAVYYCARTNYYYRNYMFYFDYWGQGTMVTVSSGGGGSGGGGSEVQLVQSGAEVKKPGSSVKVSCKASGYTFTESYMYWVKQAPGQGLELIGRIDPEDGSTDYVEKFKNKATLTADKSTSTAYMELSSLRSEDTAVYFCARFGARSYFYPMDAWGQGTTVTVSSASTKGPSVFPLAPSSKSTSGGTAALGCLVKDYFPEPVTVSWNSGALTSGVHTFPAVLQSSGLYSLSSVVTVPSSSLGTQTYICNVNHKPSNTKVDKKVEPKSCDKTHTCPPCPAPEAAGGPSVFLFPPKPKDTLMISRTPEVTCVVVDVSHEDPEVKFNWYVDGVEVHNAKTKPREEQYNSTYRVVSVLTVLHQDWLNGKEYKCKVSNKALPAPIEKTISKAKGQPREPQVYTLPPSREEMTKNQVSLTCLVKGFYPSDIAVEWESNGQPENNYKTTPPVLDSDGSFFLYSKLTVDKSRWQQGNVFSCSVMHEALHNAYTQKSLSLSPGK
light: EIVLTQSPATLSLSPGERATLFCRASQSVSNHMHWYQQKPGQAPRLLIYGASILESGVPARFSGSGSGTDFTLTISSLEPEDFAVYYCQQSWYDPITFGQGTKLEIKGGSGGGGSGGETVLTQSPATLSLSPGERATLSCRASESVSTLMHWYQQKPGQQPRLLIYGASNLESGVPARFSGSGSGTDFTLTISSLEPEDFAVYFCQQSWNDPWTFGGGTKVEIKRTVAAPSVFIFPPSDEQLKSGTASVVCLLNNFYPREAKVQWKVDNALQSGNSQESVTEQDSKDSTYSLSSTLTLSKADYEKHKVYACEVTHQGLSSPVTKSFNRGEC

Key:
[1] = target: recombinant human VEGF165 (human, UniProt P15692 207-395); assay: cell-based or functional assay
Chain of recombinant human VEGF165 (P15692 other isoform, or with tags, fused parts or gaps limits assumed): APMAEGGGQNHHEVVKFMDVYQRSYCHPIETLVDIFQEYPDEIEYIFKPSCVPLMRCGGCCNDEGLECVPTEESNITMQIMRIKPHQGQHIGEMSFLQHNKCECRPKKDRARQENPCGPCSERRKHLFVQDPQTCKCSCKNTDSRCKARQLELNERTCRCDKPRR

[2] = target: recombinant human PDGF-BB (human, UniProt P01127 82-190); assay: cell-based or functional assay
Chain of recombinant human PDGF-BB (P01127 82-190 limits assumed): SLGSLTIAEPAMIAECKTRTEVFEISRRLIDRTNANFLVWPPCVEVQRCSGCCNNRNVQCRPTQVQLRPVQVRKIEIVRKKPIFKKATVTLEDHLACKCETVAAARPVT

| Binder | Potency IC50 (nM), HMVEC-d hVEGF165 (proliferation) [1] | Potency IC50 (nM), NIH-3T3 hPDGF-BB (proliferation) [2] |
| --- | --- | --- |
| B1 | 0.05 nM | 0.043 nM |
| B2 | 0.058 nM | 0.134 nM |
| B3 | 0.059 nM | 0.052 nM |
| B4 | 0.065 nM | 0.323 nM |
| B5 | 1.78 nM | 0.187 nM |
| B6 | 0.053 nM | 6 nM |
